Data: the supplement of paper PMC11246515
± gives the standard deviation of the averaged measurements.

Experiment: total protein half-life in vivo (active degradation + dilution); higher = more stable protein
[1] = E. coli NCM3722 delta-clpP, growth: N-lim chemostat, doubling time 6 h
[2] = E. coli NCM3722 delta-hslV, growth: N-lim chemostat, doubling time 6 h
[3] = E. coli NCM3722 delta-smpB, growth: N-lim chemostat, doubling time 6 h
[4] = wild type E. coli NCM3722, growth: C-lim chemostat, doubling time 3 h
[5] = wild type E. coli NCM3722, growth: C-lim chemostat, doubling time 6 h
[6] = wild type E. coli NCM3722, growth: C-lim chemostat, doubling time 12 h
[7] = wild type E. coli NCM3722, growth: N-lim chemostat, doubling time 6 h
[8] = wild type E. coli NCM3722, growth: N-lim chemostat, doubling time 12 h
[9] = E. coli NCM3722 delta-clpP delta-lon delta-hslV, growth: N-lim chemostat, doubling time 6 h
[10] = E. coli NCM3722 delta-lon, growth: N-lim chemostat, doubling time 6 h
[11] = wild type E. coli NCM3722, growth: P-lim chemostat, doubling time 6 h
[12] = wild type E. coli NCM3722, growth: P-lim chemostat, doubling time 12 h

Sequence	total protein half-life in vivo [1] [h]	total protein half-life in vivo [2] [h]	total protein half-life in vivo [3] [h]	total protein half-life in vivo [4] [h]	total protein half-life in vivo [5] [h]	total protein half-life in vivo [6] [h]	total protein half-life in vivo [7] [h]	total protein half-life in vivo [8] [h]	total protein half-life in vivo [9] [h]	total protein half-life in vivo [10] [h]	total protein half-life in vivo [11] [h]	total protein half-life in vivo [12] [h]
MKKIAAISLISIFIMSGCAVHNDETSIGKFGLAYKSNIQRKLDNQYYTEAEASLARGRISGAENIVKNDATHFCVTQGKKMQIVELKTEGVGLHGVARLTFKCGE	5.75 ± 0.084	6.67 ± 0.98	6.04 ± 0.45	3.03 ± 0.37	5.62 ± 0.76	11.3 ± 0.14	6.8 ± 0.99	13.1 ± 1.9				
MTFSLFGDKFTRHSGITLLMEDLNDGLRTPGAIMLGGGNPAQIPEMQDYFQTLLTDMLESGKATDALCNYDGPQGKTELLTLLAGMLREKLGWDIEPQNIALTNGSQSAFFYLFNLFAGRRADGRVKKVLFPLAPEYIGYADAGLEEDLFVSARPNIELLPEGQFKYHVDFEHLHIGEETGMICVSRPTNPTGNVITDEELLKLDALANQHGIPLVIDNAYGVPFPGIIFSEARPLWNPNIVLCMSLSKLGLPGSRCGIIIANEKIITAITNMNGIISLAPGGIGPAMMCEMIKRNDLLRLSETVIKPFYYQRVQETIAIIRRYLPENRCLIHKPEGAIFLWLWFKDLPITTKQLYQRLKARGVLMVPGHNFFPGLDKPWPHTHQCMRMNYVPEPEKIEAGVKILAEEIERAWAESH	2.32 ± 0.096	2.53 ± 0.12	2.76 ± 0.11		4.26 ± 0.073	7.25 ± 0.17	2.46 ± 0.28	3.33 ± 0.17	3.05 ± 0.33	2.72 ± 0.059	4.994 ± 0.0076	9.24 ± 0.47
MFSALRHRTAALALGVCFILPVHASSPKPGDFANTQARHIATFFPGRMTGTPAEMLSADYIRQQFQQMGYRSDIRTFNSRYIYTARDNRKSWHNVTGSTVIAAHEGKAPQQIIIMAHLDTYAPLSDADADANLGGLTLQGMDDNAAGLGVMLELAERLKNTPTEYGIRFVATSGEEEGKLGAENLLKRMSDTEKKNTLLVINLDNLIVGDKLYFNSGVKTPEAVRKLTRDRALAIARSHGIAATTNPGLNKNYPKGTGCCNDAEIFDKAGIAVLSVEATNWNLGNKDGYQQRAKTPAFPAGNSWHDVRLDNHQHIDKALPGRIERRCRDVMRIMLPLVKELAKAS	5.3 ± 0.29	5.24 ± 0.83	4.38 ± 0.053	2.58 ± 0.67	2.46		5.37 ± 1	9.09 ± 1.6		5.44 ± 0.031	4 ± 0.27	7.1 ± 0.99
MKTLILFSTRDGQTREIASYLASELKELGIQADVANVHRIEEPQWENYDRVVIGASIRYGHYHSAFQEFVKKHATRLNSMPSAFYSVNLVARKPEKRTPQTNSYARKFLMNSQWRPDRCAVIAGALRYPRYRWYDRFMIKLIMKMSGGETDTRKEVVYTDWEQVANFAREIAHLTDKPTLK [P0ACB4]	6.1 ± 0.4	6.54 ± 0.68	5.74 ± 0.11	3.05 ± 0.23	5.733 ± 0.054	9.62 ± 0.39	5.4517 ± 0.0046	11.18 ± 0.03	6.5 ± 0.98	6.2 ± 0.14	5.69 ± 0.12	11.9 ± 0.72
MSKTFARSSLCALSMTIMTAHAAEPPTNLDKPEGRLDIIAWPGYIERGQTDKQYDWVTQFEKETGCAVNVKTAATSDEMVSLMTKGGYDLVTASGDASLRLIMGKRVQPINTALIPNWKTLDPRVVKGDWFNVGGKVYGTPYQWGPNLLMYNTKTFPTPPDSWQVVFVEQNLPDGKSNKGRVQAYDGPIYIADAALFVKATQPQLGISDPYQLTEEQYQAVLKVLRAQHSLIHRYWHDTTVQMSDFKNEGVVASSAWPYQANALKAEGQPVATVFPKEGVTGWADTTMLHSEAKHPVCAYKWMNWSLTPKVQGDVAAWFGSLPVVPEGCKASPLLGEKGCETNGFNYFDKIAFWKTPIAEGGKFVPYSRWTQDYIAIMGGR	5.67 ± 0.8	7.1 ± 0.7	5.71 ± 0.53	3.27 ± 0.29	7.18 ± 0.46	13.3 ± 0.99	6.37 ± 0.074	14.3 ± 0.99	5.24 ± 0.43	7.128 ± 0.054	6.9 ± 1	13.8 ± 0.29
MSKRTFAVILTLLCSFCIGQALAGGIVLQRTRVIYDASRKEAALPVANKGAETPYLLQSWVDNIDGKSRAPFIITPPLFRLEAGDDSSLRIIKTADNLPENKESLFYINVRAIPAKKKSDDVNANELTLVFKTRIKMFYRPAHLKGRVNDAWKSLEFKRSDHSLNIYNPTEYYVVFAGLAVDKTDLTSKIEYIAPGEHKQLPLPASGGKNVKWAAINDYGGSSGTETRPLQ		6.17										
MSIRIIPQDELGSSEKRTADMIPPLLFPRLKNLYNRRAERLRELAENNPLGDYLRFAALIAHAQEVVLYDHPLEMDLTARIKEASAQGKPPLDIHVLPRDKHWQKLLMALIAELKPEMSGPALAVIENLEKASTQELEDMASALFASDFSSVSSDKAPFIWAALSLYWAQMANLIPGKARAEYGEQRQYCPVCGSMPVSSMVQIGTTQGLRYLHCNLCETEWHVVRVKCSNCEQSGKLHYWSLDDEQAAIKAESCDDCDTYLKILYQEKDPKIEAVADDLASLVLDARMEQEGYARSSINPFLFPGEGE	4.49 ± 0.13	3.54 ± 0.26	2.78 ± 0.7	1.81 ± 0.24	3.48 ± 0.15	6.07 ± 2.6	3.56 ± 0.28	4.72 ± 0.75		4.36 ± 1.1	4.06 ± 0.14	7.84 ± 0.28
MHRILAEKSVNITELRKNPAKYFIDQPVAVLSNNRPAGYLLSASAFEALMDMLAEQEEKKPIKARFRPSAARLEEITRRAEQYLNDMTDDDFNDFKE	3.91								6.12 ± 0.86			4.58
